Experimental data from IntAct's records for PubMed 11752373.

B1: Cryptochrome-1 (Arabidopsis thaliana (Mouse-ear cress)), Q43125 (parent)
chain: MSGSVSGCGSGGCSIVWFRRDLRVEDNPALAAAVRAGPVIALFVWAPEEEGHYHPGRVSRWWLKNSLAQLDSSLRSLGTCLITKRSTDSVASLLDVVKSTGASQIFFNHLYDPLSLVRDHRAKDVLTAQGIAVRSFNADLLYEPWEVTDELGRPFSMFAAFWERCLSMPYDPESPLLPPKKIISGDVSKCVADPLVFEDDSEKGSNALLARAWSPGWSNGDKALTTFINGPLLEYSKNRRKADSATTSFLSPHLHFGEVSVRKVFHLVRIKQVAWANEGNEAGEESVNLFLKSIGLREYSRYISFNHPYSHERPLLGHLKFFPWAVDENYFKAWRQGRTGYPLVDAGMRELWATGWLHDRIRVVVSSFFVKVLQLPWRWGMKYFWDTLLDADLESDALGWQYITGTLPDSREFDRIDNPQFEGYKFDPNGEYVRRWLPELSRLPTDWIHHPWNAPESVLQAAGIELGSNYPLPIVGLDEAKARLHEALSQMWQLEAASRAAIENGSEEGLGDSAEVEEAPIEFPRDITMEETEPTRLNPNRRYEDQMVPSITSSLIRPEEDEESSLNLRNSVGDSRAEVPRNMVNTNQAQQRRAEPASNQVTAMIPEFNIRIVAESTEDSTAESSSSGRRERSGGIVPEWSPGYSEQFPSEENGIGGGSTTSSYLQNHHEILNWRRLSQTG
partner: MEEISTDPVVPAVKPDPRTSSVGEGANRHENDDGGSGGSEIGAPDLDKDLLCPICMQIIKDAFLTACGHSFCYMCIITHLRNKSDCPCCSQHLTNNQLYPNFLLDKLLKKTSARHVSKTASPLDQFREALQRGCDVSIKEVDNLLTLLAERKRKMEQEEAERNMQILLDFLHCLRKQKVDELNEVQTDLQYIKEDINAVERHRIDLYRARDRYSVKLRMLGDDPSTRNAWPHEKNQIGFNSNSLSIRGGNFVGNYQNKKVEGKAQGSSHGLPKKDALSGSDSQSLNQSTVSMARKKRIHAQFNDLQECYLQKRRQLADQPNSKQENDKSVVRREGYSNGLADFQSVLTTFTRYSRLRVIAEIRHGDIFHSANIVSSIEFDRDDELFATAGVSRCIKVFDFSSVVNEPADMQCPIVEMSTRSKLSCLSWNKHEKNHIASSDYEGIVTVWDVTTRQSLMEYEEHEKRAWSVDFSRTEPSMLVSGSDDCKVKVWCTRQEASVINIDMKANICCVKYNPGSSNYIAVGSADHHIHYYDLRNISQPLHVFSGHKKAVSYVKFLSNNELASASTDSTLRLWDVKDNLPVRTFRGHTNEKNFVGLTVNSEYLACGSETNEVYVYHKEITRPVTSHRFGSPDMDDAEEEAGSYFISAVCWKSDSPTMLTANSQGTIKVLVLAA
B2: E3 ubiquitin-protein ligase COP1 (Arabidopsis thaliana (Mouse-ear cress)), P43254 (parent)
chain: B1 partner

Variants of: B1
Conditions: with cop1_arath COP1, P43254

| effect of a mutation on the interaction | Variant |
| --- | --- |
| decreasing interaction | P549L |
| decreasing interaction | E515K |
| decreasing interaction | R611K |
| decreasing interaction | R581K |
| decreasing interaction | E531K |
| decreasing interaction | R576K |
| disrupting interaction | E559K |

Variants of: B2
Conditions: with cry1_arath CRY1, Q43125

| effect of a mutation on the interaction | Variant |
| --- | --- |
| decreasing interaction | E592R |
| decreasing interaction | K422E |
| decreasing interaction | K550E |
| decreasing interaction | R465E |
| decreasing interaction | G524E |
| decreasing interaction | W467A |
